This data set in a line: yeast display, Sf9 membrane polyspecificity reagent, FACS + sequencing; frameworks hold sequencing errors. In short, it runs like this: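 In a synthetic yeast display library (Saccharomyces cerevisiae BJ5465), nanobody expression was induced with galactose for 36–48 hours. FACS gates were set low and high (top ~1%) using anti-HA fluorescence for expression and streptavidin fluorescence for binding of the Sf9 membrane reagent. Each polyreactivity label is drawn from the gate of origin.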
As to “QVHPVESGGGLVQAGGSIRLSCAASGRIFRRYTMGWYRQAPGHERELVAAITRGGGSTSYADSVKGRFTISRDNAKNTVYLQMNSLKPEDTAVYYCAAQARTSTIRGYDYWGQGTQVTVSS”, the “polyreactivity (PSR sort gate)” value is reported as “high polyreactivity”.

In the case of “QVQLVESGGGLVQAGGSLRLSCAASGSTFFPNAMGWYRQAPGKEREFVAAISWSGGRTYYADSVKGRFTISRDNAKNTVYLQMNSLKPEDTAVYYCAARLYTVRYGYWGQGTQVTVSS”, the “polyreactivity (PSR sort gate)” value was “high polyreactivity”.

Take “QVQLVESGGGLVQAGGSLRLSCAASGITFYRYAMGWYRQAPGKERELVAAISYRGGRTFYADSVKGRFTISRDNAKNTVYLQMNSLKPEDTAVYYCNARDYYEKMDYWGQGTQVTVSS”: the “polyreactivity (PSR sort gate)” value is “high polyreactivity”.

For the sequence “QVQLVESGGGLVQAGGSLRLSCAASGRTFTPYAMGWYRQAPGKERELVATISSGTSTNYADSVNGRFTISRDNAKNTVYLQMNSLKPEDTAVYYCAADGYTYKFDYWGQGTQVTVSS”, the “polyreactivity (PSR sort gate)” value was “low polyreactivity”.

With “QVQLVESGGGLVQAGGSLRLSCAASGRIFFYYAMGWYRQAPGKERELVATISYSGGGTYYADSVKGRFTISRDNAKNTVYLQMNSLKPEDTAAYYCNARWGTPYYIQDFDYWGQGTQVTVSS”, the “polyreactivity (PSR sort gate)” value was “low polyreactivity”.

Regarding “QVQLVESGGGLVQAGGSLRLSCAASGRLFRWYAMGGYRQAPGKERELVAAISRSGTSTYYADSVKGRFTISRDNAKNSVYLQMNSLKPEDTAVYYCAADAVIFGMDYWGQGTQVTVSS”, the “polyreactivity (PSR sort gate)” value is recorded as “low polyreactivity”.

Regarding “QVQLVESWGGLVQAGCRLRLSCAASGRTFLTYVMGWYRQAPGKERELVAAITRGGRTNYADSVKGRFTISRDNAKNTVFLQMNSLKPEDTAVYYCARDDTPRYDYWGQGTQVTVSS”, the “polyreactivity (PSR sort gate)” value is listed as “low polyreactivity”.

Regarding “QVQLVESGGGLVQAGGTLRLSCAASGSIFIPYAMGWYRQEPGKERELVAAISGSGTSTNYADSVKGRFTISRDNAKITVYFQMISLKPEDTAVYYCAKGYSNFYRSDYWGQGTQVTVSS”, the “polyreactivity (PSR sort gate)” value is reported as “high polyreactivity”.

As for “QVQLVESGGGLVQAGGSLRLSCDASGSIIISYDMGWYRQAPGKERELVAAIRSRVGSTYYSDSVKGRFTISRDNAKNTVYLQMNSLKPEDTAVYYCAADWVWADFDYWGQGTNVTVSS”, the “polyreactivity (PSR sort gate)” value is “low polyreactivity”.

Regarding “QVQLVESGGGLDQAGGSLRLSCAASGRTFIGYAMGWYRQAPGKVRELVAAFNWSGARTYYADSVKGRFTISRDNAKNTVYLQMNSLKPEDTAVYYCAAVPVTSQTKYGYWGQGTQVTVSS”, the “polyreactivity (PSR sort gate)” value was “high polyreactivity”.

On to “HDQLVESGGGLVQAGGSLRLSCAASGNTFIYYAMGWYRQAPGKEREMVAAISRSGGSTYYADSVKGRFTISRDNAKNTVYLQMNSLKPEDTAVYYCAAEATKWIGVVTMDYWGQGTQVTVSS”, for which the “polyreactivity (PSR sort gate)” value is “high polyreactivity”.

As for “QVQLQESGGLVQAGGSLRLSCAASGSISGRNVMGWYRQAPGKEREFVASITDGSSTNYADSVKGRFTISRDNAKNTVYLQMNSLKPKDTAVYYCAAYAQRAKSFGYWGRGTQVTVSS”, the “polyreactivity (PSR sort gate)” value was “low polyreactivity”.

As for “QVQLVESGGGLVQAGGSLRLSCAASGSTFRNYAMGWYRQAPGKERELVAAISGSGGRTNYADSVKGRFTISRDNAKNTVYLQMNSLKPEDTAVYYCNGRFPDWALSEISHSTTYGYWGQGTQVTVSS”, the “polyreactivity (PSR sort gate)” value is “low polyreactivity”.

For “QVQLVESGGGLVQAGGSLRLSCAASGRTFSTYAMGWYRQATGKERELVAAIRSGGSTYYADSVKGRFTISRDNAKNTVYLQMNSLKPEDTAVYYCNALPRPSIFRYDYWGQGTQVTVSS”, the “polyreactivity (PSR sort gate)” value is on record as “high polyreactivity”.

“QVQLVESGGGLVQAGGSLRLSCAASGFTFPYNGMGWYRQAPGKERELVASISWSGASTYYADSVKGRFTISRDNAKNTVYLQMNSLKPEDTAVYYCAADPGYYSWGSSQDDYWGQGTQVTVSS”: the “polyreactivity (PSR sort gate)” value is “low polyreactivity”.

With “QVQLVESGGGLVQAGGSLRLSCAASGRTFRPYTMGWYRQAPGKERELVAAISASGGRTYYADSVKGRFTISRDNAKNTVYLQMNSLKPEDTAVYYCAARVRDSLVYGGWDDYWGQGTQVTVSS”, the “polyreactivity (PSR sort gate)” value is reported as “high polyreactivity”.

In the case of “QVQLVESGGGLVQAGGSLRLSCAATGSTFKWYAMGWYIQAPGKERELVDSISWTGASTYYADSVKGRFTISRDKAKNTVYLQMNSLKPEDTAVYYCAADRTYYALLWTGRSRYDYWGQGTQVTVSS”, the “polyreactivity (PSR sort gate)” value is reported as “high polyreactivity”.

In the case of “QVQLVESGGGLVQAGGSLRLSCAASGSTFYSYAMGWYRQAPGKEREFVAAIRYSGGRTYADSVKGRFTISRDNAKNTVYLQMNSLKPEDTAVYYCAAVYYSYRWPYDYWGQGTQVTVSS”, the “polyreactivity (PSR sort gate)” value is reported as “high polyreactivity”.

As to “QVQLVESGGGLVQAGGSLRLSCAASGFTFFDYVMGWYRQAPGKERELVAAISSSGGSTNYADSVKGRFTISRDNAKNTVYLQMNSLKPQDTAVYYCAAEDFWDDVEYWGQGTQVTVSS”, the “polyreactivity (PSR sort gate)” value is listed as “low polyreactivity”.

For “QVQLVESGGGLVQAGGSLRLSCAASGRTFYNYAMGWYRQAPGKERELVAAISGSGGSTYYADSVKGRFTISRDNAKNTVYLQMNSLKPEDTAVYYCAARKDSYYYRSYDSWGQGTQVTVSS”, the “polyreactivity (PSR sort gate)” value was “high polyreactivity”.

As to “QVQLVESGGGLVQAGGSLRLSCAASGRTFGSYAMGCYRPAPVKEREVVAGITWRDGSTYYADSVKGRFTISRDNAKNTDYLQMNSLKPEDTAVYYCAKEAVRYYLFGMEYWGQGTQVTVSS”, the “polyreactivity (PSR sort gate)” value was “low polyreactivity”.

With “QVQLVESGGGLVQAGGSLRLICAASGSTFHTYAMGWYRQAPGKERELVATITWDGGRTYYADSVKGRFTISRDNAKNTVYLQMNSLKPEDPAVYYCAADYWSIEMDYWGQGTQVTVSS”, the “polyreactivity (PSR sort gate)” value is on record as “low polyreactivity”.

As to “QVQLVESGGGLVQAGGSLRLSCAASGFTFVINDLGWYRQAPGKERELVADITSGGDTYYADSVKGRFTISRDNAKNTVYLQMNSLKPEDTAFYYCAADIYPDWIYLLYGYWGQGTQVTVSS”, the “polyreactivity (PSR sort gate)” value is on record as “low polyreactivity”.

With “QVQLVESGGGLVQAGGSLRLSCAASGSTFQENAMGWYRQAPGKEREFVAAISGSGGSTYYADSVKGRFTISRDNAKNTVYLQMNSLKPEDTAVYYCAARHYFRSRRRYDYWGQGTQVTVSS”, the “polyreactivity (PSR sort gate)” value was “low polyreactivity”.

In the case of “QVQLVESGGGLVQAGGSLRLSCAASGRTFSHYAMGWYRKAPGKERELVDTITRNGGITYYADSVKGRFTISRDNAKNTVYLQMNSLKPEDTAVYYCNTETYHVRRLFDYWGQGTQVTVSS”, the “polyreactivity (PSR sort gate)” value was “low polyreactivity”.

For “QVQLVESGGGLVQAGGSLRLSCAASGRIFGVYGMGWYRQAPGKERELVAAISWSGATTYYADSVKGRFTISRDNAKNTVYLQMNSLKPEDTEVYYCAADFGWFYDGLAVWFIRILGVYWGQGTQVTVSS”, the “polyreactivity (PSR sort gate)” value is reported as “low polyreactivity”.

Regarding “QVQLVESGGGLVQAGGILRLSCAASGRTFTPYALGWYRQAAGKERDLVAAISSRGGSTYYADSVKGRFTISRDYAKNTVDLQMNSLKPEDTAVYYCNATQYPAADRYTNNYGGGFDYWGQGTQVTVSS”, the “polyreactivity (PSR sort gate)” value is “low polyreactivity”.

As for “QVQLVESGGGLVQAGGSLRLSCAASGLTFPLYAMGWYRQAPGKEREFVAAITVSGVSTSYADSEKGRFTISRDIAKITVYLQMNSLKPEDTAVYYCAADYYIWTYWDVYYWGQGTQVTVSS”, the “polyreactivity (PSR sort gate)” value is reported as “high polyreactivity”.

As to “QVQLVESGGGLVQAGGSLRLSCPASGSIFGWYPMAWYRQAPGKERELVAAITFYSVNTYYQDSVKGRFTISRDNAKNNVYLQMNSLKPEDTAVYYCSARGATVVSRGKLYYWGQGTQVSVSS”, the “polyreactivity (PSR sort gate)” value is “low polyreactivity”.

As to “QVQLVESGGGLVQAGGSLRLSCAASGFTIGRYTMGWYRQAPGKERELVAAISWSGGSTYYADSVKGRFTISRDNAKNTVYLQMNSLKPEDTAVYYCAKVFRGGRGDYWGQGTQVTVSS”, the “polyreactivity (PSR sort gate)” value is “high polyreactivity”.

For the sequence “QVQLGESGGGLVQSGGSLRLSCAASGIIFRNYAMGWYRPAPGKERELVATITGDGGSTYYADSVKGRFTISRDNAKNTVYFQMNSLKPEDTAVYYCAAEYHHYYYYWGEYWGQGTQVTVSS”, the “polyreactivity (PSR sort gate)” value is given as “low polyreactivity”.

Regarding “QVQLVESGGGLVQAGGSLRLSCAASGFTFPRYAMGWYRQAPGKERELVAAISYSGGRTYYADSVKGRFTISRDNAKNTVYFQMNSLKPEDTAVYYFATEASTKRYDYWGQGTQVSVSS”, the “polyreactivity (PSR sort gate)” value is “high polyreactivity”.

On to “QVQLVDSGGGLVQAGGSLRLSCAASGGTISQYAMGWYRQAPGKERELVARISRRGGSTSYADSVKGRFTISRDNAKNTVYLQMNSLKPEDTAVYYCNAVRFYGRWRWIMEYWGQGSQVTVSS”, for which the “polyreactivity (PSR sort gate)” value was “high polyreactivity”.

Take “QVQLVESGAGLVQAGGSLRLSCASSGSIFVSNAMGWYRKAPGKERELVAAISQSGGSTYYADSVKGRFTISRDNAKNTVYLLMNSLKPEDTAVYYCATPIRSGFRIYDYWGQGTQVTVSS”: the “polyreactivity (PSR sort gate)” value is “low polyreactivity”.

On to “QVQLVESGGGLVQAGGSLRLSCAASGRTFYTYAMGWNRQAPGKEREFVAAITGSGGSTYYADSVKWRFTISRDNAKNTVYLQMTSLKPDDRAVYYCNAGSPGDVWYYYWGQGTQVTVSS”, for which the “polyreactivity (PSR sort gate)” value is reported as “low polyreactivity”.

In the case of “QVQLVESGGGLVQAGGSLRLSCAASGSIFQFYAMGWYRQAPGKERELVAVITTSGVSTYYADSVKGRFTISRDNAKNTVYLQMNSLKPEATAVYYCAADDYYLAGDYWGQGTQVTVSS”, the “polyreactivity (PSR sort gate)” value was “low polyreactivity”.

“QVQLVESGGGLVQAGGSLRLTCAASGRICSNYAMGWYRPARGKERELLAAITVIGGRTYYADSVKGRFTISRDNPKNTVYLHMNSPKPEDTAVYYCAATPRRPWFYGSDYWGQGTQVTVSS”: the “polyreactivity (PSR sort gate)” value is on record as “high polyreactivity”.

In the case of “QVQLVESGGGLVQAGGSLRLSCAASGRTFVRYAMGWYRQAPGKERELVAAISRTGGTTYYADSVKGRFTISRDNAKNTVYLQMNSLKPVDTAVYYCNADPFYKYGYWGQGTQVTVSS”, the “polyreactivity (PSR sort gate)” value is reported as “high polyreactivity”.

In the case of “QVQLVESGGGLVQAGGSLRLSCAASGSTFRVYAMGWYRQAPGKERELVAGISWRGGSTSYADSVKGRFTISRDNAKNTVYLQMNSLKPEDTAVYYCAVQRSYVGPRQYNYWGQGTQVTVSS”, the “polyreactivity (PSR sort gate)” value is recorded as “high polyreactivity”.

Regarding “QVQLVESGGGLVQEGGSLRLSCAASGSTFSRYAMGWYRQAPGKERELVAAISSRGGSTYYADSVKGRFTISRDNAKNNVYLQMNSLKPEDTAVYYCNALTSYQNHVYPYDYWGQGTQVTVSS”, the “polyreactivity (PSR sort gate)” value is “high polyreactivity”.

As for “QVQLVESGGGLVQAGGSLRLSCAASGFTFGANAMGWYRQAPGKERELVAAITKRGGNTYYADSVKGRFTISRDNAKNTVYLQMNSLKPEDTAVYYCARDYTHGYDYWGQGTQVTVSS”, the “polyreactivity (PSR sort gate)” value is reported as “high polyreactivity”.
